Laboratory results taken from US20240067748A1 (NONA BIOSCIENCES SUZHOU, published 2024).
Numbering of substitutions follows the chain as printed.

T1: human TROP2 protein (Sino Biological, #10428-H08H) (human, UniProt P09758 27-274)
T1 construct: bought protein; also called human Trop2 protein antigen (His tag); not shown: His tag
T1 sequence (looked up): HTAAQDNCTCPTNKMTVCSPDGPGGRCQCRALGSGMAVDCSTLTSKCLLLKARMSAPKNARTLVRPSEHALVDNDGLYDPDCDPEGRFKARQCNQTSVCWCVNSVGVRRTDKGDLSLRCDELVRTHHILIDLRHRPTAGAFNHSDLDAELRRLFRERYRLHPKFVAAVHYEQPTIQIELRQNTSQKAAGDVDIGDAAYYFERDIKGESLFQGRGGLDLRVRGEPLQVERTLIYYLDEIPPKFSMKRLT

T2: human Trop2 on cells (human, UniProt P09758 27-323)
T2 construct: whole, on cells; also called hTrop2; 293T-human Trop2 cells
T2 sequence (looked up): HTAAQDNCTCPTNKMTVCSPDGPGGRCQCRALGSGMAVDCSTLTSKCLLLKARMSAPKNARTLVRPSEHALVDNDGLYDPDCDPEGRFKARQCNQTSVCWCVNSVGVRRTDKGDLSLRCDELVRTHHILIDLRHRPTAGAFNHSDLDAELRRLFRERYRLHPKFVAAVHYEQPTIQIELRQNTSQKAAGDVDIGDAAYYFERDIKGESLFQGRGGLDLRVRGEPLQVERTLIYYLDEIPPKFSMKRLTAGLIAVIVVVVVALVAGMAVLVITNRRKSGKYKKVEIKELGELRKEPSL

T3: monkey Trop2 on CHO-K1 cells (monkey, UniProt A0A2K5UE71 27-323)
T3 construct: also called CHO-K1/monkey Trop2
T3 sequence: T2 sequence (looked up) with M36V, K46E, S67N, I204V, M266V, T272S

B1: PR001130 (antibody, human IgG1, kappa, V domains shown)
VH: QVQLQESGPGLVKPSGTLSLTCAVSGDSISSHNWWSWVRQPPGKGLEWIGEIYHSGITSYNPSLKSRVTISVDKSKNQFSLKLNSVTAADTAMYYCARGSGVISYFDYWGQGTLVTVSS
VL: DIQMTQSPSTLSASVGDRVTITCRASQSIGNWLAWYQQKPGKAPKLLIYKASSLESGVPSRFSGSGSGTEFTLTISSLQPDDFATYYCQQYDSYSPITFGQGTRLEIKR
notes: fully human IgG1/kappa; also called antibody No. (2)
B2: PR001142 (antibody, human IgG1, kappa, V domains shown)
VH: B1 VH with H32N, H54P, S55G, I57N, T58P, S59N, M93V
VL: B1 VL with N31H, S63R, D92S, T103S
notes: fully human IgG1/kappa; also called antibody No. (9)
B3: PR001165 (antibody, human IgG1, kappa, V domains shown)
VH: QVQLVESGGGVVQPGRSLRLSCEASGFTFSHYGMHWVRQAPGKGLEWVAVIWYDGIKTYYVESVKGRFTISRDNSKNTLNLQMNRLRAEDTAVYYCARDGGFGESNYYGLDVWGQGTTVTVSS
VL: DIQLTQSPSFLSASVGDRVTITCRASQGISSYLGWYQQKPGKAPKLLIYIASTLQSGVPSRFSGSGSGTEFTLTISSLQPEDFATYYCQQLNSYPYTFGQGTKLEIKR
notes: fully human IgG1/kappa; also called antibody No. (26)
B4: PR001166 (antibody, human IgG1, kappa, V domains shown)
VH: QVQLQESGPGLVKPSETLSLTCAVSGYSISSGYFWAWIRQPPGKGLEWIGSIYHSGRTHYNPSLKSRVIISLDTSKNQFSLKLRSVTAADSAVYYCAREGYASGSYYWGQGTLVTVSS
VL: EIVMTQSPATLSVSPGERATLSCRSSQSVNNYLAWFQQKPGQAPRLLIYDSSTRATGIPARFSGSGSGTEFTLTISSLQSEDFAFYFCQQYENWPLTFGGGTKVEIKR
notes: fully human IgG1/kappa; also called antibody No. (27)
B5: comparative example 2 antibody Tab (hRS7) (antibody, human IgG1, kappa, V domains shown)
VH: QVQLQQSGSELKKPGASVKVSCKASGYTFTNYGMNWVKQAPGQGLKWMGWINTYTGEPTYTDDFKGRFAFSLDTSVSTAYLQISSLKADDTAVYFCARGGFGSSYWYFDVWGQGSLVTVSS
VL: DIQLTQSPSSLSASVGDRVSITCKASQDVSIAVAWYQQKPGKAPKLLIYSASYRYTGVPDRFSGSGSGTDFTLTISSLQPEDFAVYYCQQHYITPLTFGAGTKVEIKR
notes: prepared on the basis of sacituzumab govitecan (ChemPartner, #T07-001); naked antibody
B6: PR001139 (antibody, human IgG1, kappa, V domains shown)
VH: QVQLVESGGGVVQPGRSLRLSCAASGFTFSSFGMQWVRQGPGKGLEWVAVMWFDGSNKYYVDSVKGRFTISRDNSKNTLYLQMNSLRAEDTAVYYCARLDFSGWPLIDYWGQGTLVTVSS
VL: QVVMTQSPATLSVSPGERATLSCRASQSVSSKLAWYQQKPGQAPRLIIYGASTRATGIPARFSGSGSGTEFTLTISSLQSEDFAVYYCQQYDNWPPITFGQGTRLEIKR
notes: fully human IgG1/kappa; also called antibody No. (8)
B7: PR001128 (antibody, human IgG1, kappa, V domains shown)
VH: QVQLQESGPGLVKPSGTLSLTCAVSGGSISSSNWWSWVRQPPGKGLEWIGEIFHSGTTYYNPSLKSRVTILVDKSKNQFSLKLSSVTAADTAVYYCARDNTKSWDHFDHWGQGTLVTVSS
VL: EIVLTQSPATLSLSPGERATLSCRASQSVGSYLAWYQQKPGQAPSLLIYDASNRATGIPARFSGSGSGTDFTLTISSLEPEDFAVYYCQQRTNWYTFGQGTKLEIKR
notes: fully human IgG1/kappa; also called antibody No. (1)
B8: PR001133 (antibody, human IgG1, kappa, V domains shown)
VH: QVNLVESGGGVVQPGRSLKLSCAASGFTFSSYGMHWVRQAPGKGLEWVALIWSDGTNRYYTESVKGRFTISRDNSKNTLSLQMKSLRAEDTAVYYCAKDGWGTYGEYFQHWGQGTLVTVSS
VL: DIQMTQSPSSLSASVGDRVTITCRASQNINSYLHWYQQKPGKAPKLLIYAASSLQSGVPSRFSGSGSGTDFTLTISSLQPEDFAIYYCQQSYSIPPITFGQGTRLEIKR
notes: fully human IgG1/kappa; also called antibody No. (5)
B9: PR001162 (antibody, human IgG1, kappa, V domains shown)
VH: QVQLVESGGGVVQPGTSLRLSCVASGFTFSNDGMHWVRQAPGMGLEWVAIMWFDGGSKYYADSVKGRFTISRDNSKNTLYLQMNNLRAEDTAVYYCARDHPHYLGSGSFDYWGQGTLVTVSS
VL: EIVLTQSPATLSLSPGERATLSCRASQSVSSYLAWYQQKPGQAPRLLIYDASNRATGIPARFSGSGSGTDFTLTISSLQAEDVAVYYCQQYYSTPYTFGQGTKLEIKR
notes: fully human IgG1/kappa; also called antibody No. (23)

Key:
[1] = target: T1, human TROP2 protein (Sino Biological, …); test: BLI, Octet RED96, AHC sensor
Experimental: Specifically, a human TROP2 protein (Sino Biological, #10428-H08H) or a monkey Trop2 protein (Sino Biological, #90893-C08H) was diluted to 200 nM with a PBS buffer (pH 7.4) containing 0.1% (w/w) BSA and 0.02% (v/v) tween 20, and incubated with the AHC sensor respectively. 40 nM Trop2 antibody was incubated at 30° C. for 3 min with the AHC sensor loaded with the human Trop2 protein or monkey Trop2 protein respectively. The reaction mixture was incubated at 30° C. for another 5 min in a PBS buffer (pH 7.4) containing 0.1% (v/w) BSA and 0.02% (v/v) Tween 20. The association and dissociation signals between the Trop2 antibody and the human Trop2 protein or monkey Trop2 protein were recorded by Octet Red 96 in real time. The affinity and the association and dissociation constants were determined by Octet using software.

human Trop2 on cells [2] = target: T2, human Trop2 on cells; test: flow cytometry on BxPC-3 tumor cells
Experimental: BxPC-3 tumor cells (the Cell Bank of the Chinese Academy of Sciences, #TCHu 12) were digested with 3 mL of TrypLE, and the digestion was stopped with 7 mL of the corresponding medium. […] The cell solution was centrifuged, and the cells were washed once with PBS+[…] buffer. […] The cells were washed once with PBS+0.50% BSA. The cells were incubated at 4° C. for 1 h in the dark with 100 μL of Alexa Fluor 488 goat anti-human IgG (Life technologies, #A-11013) diluted at 1:1000, and washed twice with PBS+0.50% BSA. The cells were resuspended in 200 μL of PBS+0.50% BSA. The suspension was centrifuged at 4° C. for 5 min at 2000 rpm and tested using a FACS verse flow cytometer or NovoCyte flow cytometer (ACEA Biosciences). All procedures were performed on ice.

human Trop2 on cells [3] = target: T2, human Trop2 on cells; test: flow cytometry on 293T-human Trop2 cells
Experimental: The cell density was determined, and the cells were resuspended to 1×10⁶ cells/mL in PBS. 100 μL of cell suspension was taken from each well and added to a 96 well V-bottom plate. The 96-well V-bottom plate was centrifuged at 1000 rpm for 5 min and washed once with PBS+0.5% BSA (VWR, #0332-100G). […] After 1 h, the cells were washed twice with PBS+0.5% BSA. The cells were incubated with 100 μL of Alexa Fluor 488 goat anti-human IgG (Life technologies, 1:1000, #A-11013) at 4° C. for 1 h in the dark, and washed twice with PBS+0.5% BSA. The cells were resuspended in 200 μL of PBS+0.5% BSA. The fluorescence intensity of the cells was analyzed using a FACS verse flow cytometer. All procedures were performed on ice.

[4] = target: T3, monkey Trop2 on CHO-K1 cells; test: flow cytometry on CHO-K1/monkey Trop2 cells
Experimental: CHO-K1/monkey Trop2 cells (Chempartner, Shanghai, China) and CHO-K1 blast cells were each digested with 3 mL of TrypLE, and the digestion was stopped with 7 mL of the corresponding medium. […] The cell solution was centrifuged, and the cells were washed once with PBS+0.5% BSA. […] The cells were washed once with PBS+0.5% BSA. The cells were incubated at 4° C. for 1 h in the dark with 100 μL of Alexa Fluor 488 goat anti-human IgG (Life technologies, #A-11013) diluted at 1:1000, and washed twice with PBS+0.5% BSA. The cells were resuspended in 200 μL of PBS+0.5% BSA. The suspension was centrifuged at 4° C. for 5 min at 2000 rpm and tested using a FACS verse flow cytometer or NovoCyte flow cytometer (ACEA Biosciences). All procedures were performed on ice.

Row | Binder | Kd [1] | Response [1] | koff [1] | kon [1] | EC50 (human Trop2 on cells [2]) | Maximum MFI value (human Trop2 on cells [2]) | EC50 (human Trop2 on cells [3]) | Maximum (MFI) (human Trop2 on cells [3]) | Top % (human Trop2 on cells [3]) | EC50 [4] | Maximum MFI value [4] | fold lower EC50 than the reference antibody hRS7 (human Trop2 on cells [2]) | fold lower EC50 than the reference antibody hRS7 (human Trop2 on cells [3]) | fold lower KD than the reference antibody Tab (hRS7) [1]
1 | B1 | < 0.001 nM | 0.357 | < 1e-07 s⁻¹ | 55200 M⁻¹ s⁻¹ | 3.85 nM | 9960 MFI | 2.06 nM | 6820 MFI | 105% | 6.26 nM | 61700 MFI | – | – | –
2 | B2 | 0.323 nM | 0.39 | 8.78e-05 s⁻¹ | 272000 M⁻¹ s⁻¹ | 1.15 nM | 10800 MFI | 0.23 nM | 6510 MFI | 101% | 2.1 nM | 51200 MFI | ~2 fold | ~3 fold | –
3 | B3 | < 0.001 nM | 0.38 | < 1e-07 s⁻¹ | 164000 M⁻¹ s⁻¹ | – | – | 0.414 nM | 6460 MFI | 99.7% | – | – | – | – | ~10 fold
4 | B4 | < 0.001 nM | 0.324 | < 1e-07 s⁻¹ | 470000 M⁻¹ s⁻¹ | 0.716 nM | 8390 MFI | 0.204 nM | 7050 MFI | 109% | 1.97 nM | 51500 MFI | ~2 fold | ~3 fold | –
5 | B5 | 0.199 nM | 0.349 | – | – | 2.08 nM | 8730 MFI | 0.753 nM | 6480 MFI | – | 2.13 nM | 53100 MFI | – | – | –
6 | B6 | 4.79 nM | 0.336 | 0.000426 s⁻¹ | 89000 M⁻¹ s⁻¹ | 3.15 nM | 9360 MFI | 0.325 nM | 6850 MFI | 106% | 3.33 nM | 46400 MFI | – | – | –
7 | B7 | < 0.001 nM | 0.402 | < 1e-07 s⁻¹ | 130000 M⁻¹ s⁻¹ | 1.7 nM | 8410 MFI | 0.466 nM | 6850 MFI | 106% | 2.57 nM | 53200 MFI | – | – | –
8 | B8 | 1.1 nM | 0.386 | 9.72e-05 s⁻¹ | 88500 M⁻¹ s⁻¹ | 2.07 nM | 8950 MFI | 0.995 nM | 7200 MFI | 111% | 2.87 nM | 55300 MFI | – | – | –
9 | B9 | 1.7 nM | 0.366 | 0.000507 s⁻¹ | 298000 M⁻¹ s⁻¹ | 1.12 nM | 9110 MFI | 0.158 nM | 5850 MFI | 90.2% | 2.25 nM | 45500 MFI | ~2 fold | ~3 fold | –
